Laboratory results: US20100068766A1 (WASEDA UNIVERSITY, published 2010)

B1: human Ev1 protein (NCBI accession No. AAF21709) (other, UniProt Q9UI08-2 1-418, looked up)
chain: MATSEQSICQARASVMVYDDTSKKWVPIKPGQQGFSRINIYHNTASNTFRVVGVKLQDQQVVINYSIVKGLKYNQATPTFHQWRDARQVYGLNFASKEEATTFSNAMLFALNIMNSQEGGPSSQRQVQNGPSPDEMDIQRRQVMEQHQQQRQESLERRTSATGPILPPGHPSSAASAPVSCSGPPPPPPPPVPPPPTGATPPPPPPLPAGGAQGSSHDESSMSGLAAAIAGAKLRRVQRPEDASGGSSPSGTSKSDANRASSGGGGGGLMEEMNKLLAKRRKAASQSDKPAEKKEDESQMEDPSTSPSPGTRAASQPPNSSEAGRKPWERSNSVEKPVSSILSRTPSVAKSPEAKSPLQSQPHSRMKPAGSVNDMALDAFDLDRMKQEILEEVVRELHKVKEEIIDAIRQELSGISTT
notes: range 1-418; His tag removed by thrombin; By gel filtration it eluted at approximately 600 kDa (approximately 13-mer multimer); In the pull-down it was either coupled covalently to Affi-Gel 10 beads or free in solution; also called entire-length Ev1 protein; His-Ev1 (before the tag was removed)
B2: Rad51B protein (other, UniProt O15315-1 1-350, looked up)
chain: MGSKKLKRVGLSQELCDRLSRHQILTCQDFLCLSPLELMKVTGLSYRGVHELLCMVSRACAPKMQTAYGIKAQRSADFSPAFLSTTLSALDEALHGGVACGSLTEITGPPGCGKTQFCIMMSILATLPTNMGGLEGAVVYIDTESAFSAERLVEIAESRFPRYFNTEEKLLLTSSKVHLYRELTCDEVLQRIESLEEEIISKGIKLVILDSVASVVRKEFDAQLQGNLKERNKFLAREASSLKYLAEEFSIPVILTNQITTHLSGALASQADLVSPADDLSLSEGTSGSSCVIAALGNTWSHSVNTRLILQYLDSERRQILIAKSPLAPFTSFVYTIKEEGLVLQAYGNS
notes: In the pull-down it was either coupled to Affi-Gel 10 beads or free in solution

Assays:
[1] = target: the molecule itself; experiment: inferred from the pull-down on Rad51B-bound beads; gel filtration (approximately 600 kDa)
[2] = target: B1; experiment: pull-down, Ev1 coupled to Affi-Gel 10 beads, SDS-PAGE, Coomassie stain
Experimental: Thereafter, the obtained mixture was incubated at 4° C. overnight. The Affi-Gel 10-Ev1 beads were washed 3 times with 500 μl of washing buffer 1 (20 mM potassium phosphate (pH 8.5), 30% glycerol, 700 mM NaCl, 5 mM 2-mercaptoethanol, and 0.05% Triton X-100). The Affi-Gel 10-Rad51B beads were washed 3 times with washing buffer 2 (20 mM HEPES-NaOH (pH 7.3), 30% glycerol, 90 mM NaCl, 2 mM 2-mercaptoethanol, 0.1% Triton X-100, 2 mM ammonium sulfate, and 0.1 mM EDTA). Thereafter, a 50% suspension of such Affi-Gel 10-protein was prepared, and it was then preserved at 4° C.
In order to carry out a binding assay, an Affi-Gel 10-protein suspension (30 μl) was incubated with 10 μg of an Ev1 or Rad51B protein at room temperature for 150 minutes. Affi-Gel 10-Ev1 beads were washed 4 times with 100 μl of buffer 1 (20 mM potassium phosphate (pH 8.5), 30% glycerol, 700 mM NaCl, 5 mM 2-mercaptoethanol, and 0.3% Triton X-100). Affi-Gel 10-Rad51B beads were washed 4 times with 100 μl of buffer 2 (20 mM HEPES-NaOH (pH 7.3), 30% glycerol, 90 mM NaCl, 2 mM 2-mercaptoethanol, 2 mM ammonium sulfate, 0.1 mM EDTA, and 0.35% Triton X-100). An SDS-PAGE sample treatment buffer (2×) was directly mixed with the washed beads, and the obtained mixture was then subjected to a heat treatment at 100° C. for 2 minutes. […]

stoichiometric ratio [2] | Binder | binding result [1]
– | B1 | binds
1 Rad51B:Ev1 (1:1) | B2 | –
